Where two headings read alike, the source gives them in different places. Each block holds one molecule with its values, some of them ahead of it. Where no end group is shown, it is not given here. [ ]: non-standard residue; d: D form. The star is where a group is joined. Propanoyl(3-C8F17) = O=C(CCC(F)(F)C(F)(F)C(F)(F)C(F)(F)C(F)(F)C(F)(F)C(F)(F)C(F)(F)F)*; Phe(4-Br) = N[C@@H](Cc1ccc(Br)cc1)C(=O)O; fluorocarbon group = not defined here; Palmitoyl = CCCCCCCCCCCCCCCC(=O)*; acyl group = not defined here; Nle = CCCC[C@H](N)C(=O)O; Aib = CC(C)(N)C(=O)O
Experiments:
[1] = biological target: T1, wild-type rat apelin receptor-EGFP (rat, UniProt Q9JHG3 1-377, EGFP is fused at the C-terminal (intracellular) end of the receptor. It is not included in the letters.); assay: cell-based or functional assay
T1 sequence: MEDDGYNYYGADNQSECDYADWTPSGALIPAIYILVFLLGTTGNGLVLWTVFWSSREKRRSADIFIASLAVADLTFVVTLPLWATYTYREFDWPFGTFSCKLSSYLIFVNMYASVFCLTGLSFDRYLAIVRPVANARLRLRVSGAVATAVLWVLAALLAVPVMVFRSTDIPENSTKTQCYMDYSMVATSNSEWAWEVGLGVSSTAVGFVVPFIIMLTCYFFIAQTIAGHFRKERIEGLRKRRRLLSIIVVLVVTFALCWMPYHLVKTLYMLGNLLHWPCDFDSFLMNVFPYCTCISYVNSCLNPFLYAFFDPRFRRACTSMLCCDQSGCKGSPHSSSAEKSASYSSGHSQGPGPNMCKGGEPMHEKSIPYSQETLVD

[2] = biological target: T1, wild-type rat apelin receptor-EGFP; assay: competitive radioligand binding vs [125I]-pE13F, rat apelin receptor-EGFP in CHO membranes
[3] = biological target: T1, wild-type rat apelin receptor-EGFP; assay: cell-based or functional assay; remark: listed apart in the source
[4] = biological target: T1, wild-type rat apelin receptor-EGFP; assay: competitive radioligand binding vs [125I]-pE13F, membranes of CHO cells expressing rat apelin receptor-EGFP
[5] = biological target: T1, wild-type rat apelin receptor-EGFP; assay: radioligand binding on membrane preparation from CHO cells stably expressing the rat apelin receptor-EGFP
[6] = biological target: T1, wild-type rat apelin receptor-EGFP; assay: cell-based or functional assay; remark: listed apart in the source
[7] = biological target: T1, wild-type rat apelin receptor-EGFP; assay: competitive radioligand binding vs [125I]-pE13F, membranes of CHO cells expressing rat apelin receptor-EGFP
Protocol: (§1) Crude membrane preparation from CHO stably expressing the wild-type rat apelin receptor-EGFP, were prepared as previously described (39). […] The reaction was stopped by adding ice-cold binding buffer and filtered through glass microfiber filters (Whatman GF/C filters). Radioactivity was counted in Wizard 1470 Wallac gamma counter (Perkin Elmer, Turku, Finland).

[8] = biological target: T1, wild-type rat apelin receptor-EGFP; assay: cell-based or functional assay; remark: listed apart in the source
[9] = biological target: T1, wild-type rat apelin receptor-EGFP; assay: competitive radioligand binding vs [125I]-pE13F, membranes of CHO cells expressing rat apelin receptor-EGFP; remark: listed apart in the source
Protocol: as §1

[10] = biological target: T1, wild-type rat apelin receptor-EGFP; assay: cell-based or functional assay; remark: listed apart in the source
[11] = biological target: T1, wild-type rat apelin receptor-EGFP; assay: competitive radioligand binding vs [125I]-pE13F, membranes of CHO cells expressing rat apelin receptor-EGFP; remark: listed apart in the source
Protocol: as §1

[12] = biological target: T1, wild-type rat apelin receptor-EGFP; assay: cell-based or functional assay; remark: listed apart in the source
[13] = biological target: T1, wild-type rat apelin receptor-EGFP; assay: cell-based or functional assay; remark: listed apart in the source
[14] = biological target: T1, wild-type rat apelin receptor-EGFP; assay: cell-based or functional assay; remark: listed apart in the source
[15] = biological target: T1, wild-type rat apelin receptor-EGFP; assay: competitive radioligand binding vs [125I]-pE13F, membranes of CHO cells expressing rat apelin receptor-EGFP; remark: listed apart in the source
[16] = biological target: T1, wild-type rat apelin receptor-EGFP; assay: cell-based or functional assay; remark: listed apart in the source
[17] = biological target: T1, wild-type rat apelin receptor-EGFP; assay: D-scanning; competitive radioligand binding vs [125I]-pE13F, rat apelin receptor-EGFP in CHO membranes

Chain of AT1 receptor (P30556 whole entry): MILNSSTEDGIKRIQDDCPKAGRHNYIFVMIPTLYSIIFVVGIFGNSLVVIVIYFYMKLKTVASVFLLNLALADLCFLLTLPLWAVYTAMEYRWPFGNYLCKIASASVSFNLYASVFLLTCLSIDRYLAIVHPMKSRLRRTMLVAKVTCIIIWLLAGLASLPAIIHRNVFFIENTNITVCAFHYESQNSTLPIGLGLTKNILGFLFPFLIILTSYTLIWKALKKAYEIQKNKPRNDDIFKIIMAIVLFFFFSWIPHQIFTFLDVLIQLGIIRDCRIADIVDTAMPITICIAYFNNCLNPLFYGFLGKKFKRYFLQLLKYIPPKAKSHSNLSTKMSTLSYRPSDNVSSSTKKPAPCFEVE

inhibition of forskolin-induced cAMP production IC50 [1]: 0.1 nM
Molecule: pE13(4Br-Phe^13) (peptide)

inhibition of forskolin-induced cAMP production IC50 [1]: 1 nM
Molecule: pE13F (pyroglutamyl form of apelin 13) (peptide)

Ki [4]: 0.18 nM
IC50 cAMP inhibition [3]: 3.8 nM
B1: JFM V-0210/1 (peptide)
peptide: KKFRRQRPRLSHKGPMPF
modifications: fluorocarbon (perfluoroalkyl) group on the εNH2 of the added N-terminal linker L-lysine

Ki [4]: 1.43 nM
IC50 cAMP inhibition [3]: 2 nM
Molecule: K(Palmitoyl)FRRQRPRLSHKGPMPF [JFM V-0220A]

IC50 cAMP inhibition [6]: 0.09 nM
IC50 [7]: 0.29 nM
Ki [7]: 0.049 nM
ERK1/2 phosphorylation EC50 [8]: 4.08 nM
Internalization EC50 [8]: 0.26 nM
cAMP production IC50 [8]: 0.3 nM
Ki [9]: 0.06 nM
ERK1/2 phosphorylation EC50 [10]: 4.08 nM
Inhibition of FSK-induced cAMP production IC50 [10]: 0.3 nM
Internalization EC50 [10]: 0.26 nM
Ki [11]: 0.26 nM
cAMP production IC50 [12]: 0.3 nM
Molecule: H-KFRRQRPRLSHKGPMPF-OH [K17F (apelin-17)]

Ki [4]: 1.33 nM
IC50 cAMP inhibition [3]: 1.4 nM
Molecule: KKFRRQRPRLSHKGPMPF (acyl group RC(O)- on the εNH2 of the added N-terminal linker L-lysine) [JFM V-0210/2]

cAMP production IC50 [16]: 0.45 nM
IC50 [4]: 0.11 nM
Molecule: Ac-KFRRQRPR[dL]S[Aib]K[dA]P[Nle]P[Phe(4-Br)] (not fully specified (residue 3)) [P96]

inhibition of forskolin-induced cAMP production IC50 [3]: 1 nM
Molecule: XRPRLSHKGPXPF (pGlu at 1; Nle (norleucine) at 11) [pE13F(Nle^11)]

factor of improved affinity as compared to K17F [2]: 10 fold
cAMP production IC50 [16]: 0.34 nM
IC50 [4]: 0.03 nM
Molecule: Ac-KFRR[dQ]RPR[dL]S[Aib]K[dA]P[Nle]P[Phe(4-Br)] [P95]

The next lines start with the molecule.

Molecule: XRPRLSXKGPMPF (pGlu at 1; Aib (α-aminoisobutyric acid) at 7) [pE13F(Aib^7)]
Ki [2]: 2.6 nM
inhibition of forskolin-induced cAMP production IC50 [3]: 1.2 nM

Molecule: {acyl group}-KF[dR]R[dQ]RPR[dL]S[Aib]K[dA]P[Nle]P[Phe(4-Br)] (reading uncertain; also: acyl group on the NH2α of Lys 1) [LIPO-P92]
Ki [5]: 0.25 nM
factor of decreased affinity as compared to P92 [5]: 2 to 3 fold

B2: P26 (peptide)
peptide: RPRLSXKAPXPF
HELM: PEPTIDE1{[ac].R.P.R.[dL].S.[Aib].K.[dA].P.[Nle].P.[O=C(O)[C@H](Cc1ccc(Br)cc1)N[*:1]]}$$$$V2.0
SMILES: CCCC[C@H](NC(=O)[C@@H]1CCCN1C(=O)[C@@H](C)NC(=O)[C@H](CCCCN)NC(=O)C(C)(C)NC(=O)[C@H](CO)NC(=O)[C@@H](CC(C)C)NC(=O)[C@H](CCCNC(=N)N)NC(=O)[C@@H]1CCCN1C(=O)[C@H](CCCNC(=N)N)NC(C)=O)C(=O)N1CCC[C@H]1C(=O)N[C@@H](Cc1ccc(Br)cc1)C(=O)O
Inhibition of FSK-induced cAMP production IC50 [13]: 2.22 nM
Internalization EC50 [13]: 2.11 nM
ERK1/2 phosphorylation EC50 [3]: 72.1 nM
Internalization EC50 [3]: 2.1 nM
cAMP production IC50 [3]: 2.22 nM
inhibition of forskolin-induced cAMP production IC50 [3]: 4.4 nM
ERK1/2 phosphorylation EC50 [14]: 71.3 nM
ERK1/2 phosphorylation EC50, fold against K17F [14]: 18 fold
Ki [15]: 2.11 nM

B3: P92 (peptide)
peptide: KFRRQRPRLSXKAPXPF
HELM: PEPTIDE1{[ac].K.F.[dR].R.[dQ].R.P.R.[dL].S.[Aib].K.[dA].P.[Nle].P.[O=C(O)[C@H](Cc1ccc(Br)cc1)N[*:1]]}$$$$V2.0
SMILES: CCCC[C@H](NC(=O)[C@@H]1CCCN1C(=O)[C@@H](C)NC(=O)[C@H](CCCCN)NC(=O)C(C)(C)NC(=O)[C@H](CO)NC(=O)[C@@H](CC(C)C)NC(=O)[C@H](CCCNC(=N)N)NC(=O)[C@@H]1CCCN1C(=O)[C@H](CCCNC(=N)N)NC(=O)[C@@H](CCC(N)=O)NC(=O)[C@H](CCCNC(=N)N)NC(=O)[C@@H](CCCNC(=N)N)NC(=O)[C@H](Cc1ccccc1)NC(=O)[C@H](CCCCN)NC(C)=O)C(=O)N1CCC[C@H]1C(=O)N[C@@H](Cc1ccc(Br)cc1)C(=O)O
Inhibition of FSK-induced cAMP production IC50 [13]: 0.56 nM
cAMP production IC50 [16]: 0.62 nM
IC50 [4]: 0.21 nM
Ki [4]: 0.2 nM
ERK1/2 phosphorylation EC50 [3]: 3.42 nM
Internalization EC50 [3]: 0.38 nM
cAMP production IC50 [3]: 0.56 nM
inhibition of forskolin-induced cAMP production IC50 [3]: 0.2 nM
selectivity factor towards the AT1 receptor with respect to the apelin receptor (AT1 receptor): 100 fold
Ki [15]: 0.09 nM

Molecule: {fluorocarbon group}-KF[dR]R[dQ]RPR[dL]S[Aib]K[dA]P[Nle]P[Phe(4-Br)] (reading uncertain; also: fluorocarbon group on the NH2α of Lys 1) [FLUORO-P92]
Ki [5]: 0.31 nM

Molecule: XRPRLSHKAPMPF (pGlu at 1; D-Ala at 9) [pE13F(D-Ala^9)]
inhibition of forskolin-induced cAMP production IC50 [3]: 43 nM
Ki [17]: 4.3 nM

Molecule: K(heptadecafluoroundecanoyl)FRRQRPRLSHKGPMPF [JFM V-0220B]
Ki [4]: 0.16 nM
IC50 cAMP inhibition [3]: 1 nM

Molecule: {Propanoyl(3-C8F17)}-KFRRQRPRLSHKGPMPF [JFM V-0196B]
ERK1/2 phosphorylation EC50 [13]: 0.89 nM
Inhibition of FSK-induced cAMP production IC50 [13]: 3.13 nM
Internalization EC50 [13]: 0.41 nM
Ki [4]: 0.21 nM
IC50 cAMP inhibition [3]: 3.1 nM
cAMP production IC50 [3]: 3.1 nM
Ki [15]: 0.08 nM

Molecule: Palmitoyl-KFRRQRPRLSHKGPMPF [JFM V-0196A]
Ki [4]: 0.76 nM
IC50 cAMP inhibition [3]: 3.9 nM
cAMP production IC50 [3]: 3.9 nM

Molecule: Ac-RPRLSHKGPMPF [Ac-R12F]
Ki [2]: 1.4 nM
inhibition of forskolin-induced cAMP production IC50 [3]: 2.4 nM

Reference: patent publication US20170355734A1 (INSERM INSTITUT NATIONAL DE LA SANT ET DE LA RECHERCHE M …, published 2017)
